# From IntAct's records for PubMed 18728196
# B1: Anti-sigma factor RshA (Mycobacterium tuberculosis (strain ATCC 25618 / P9WJ69 (parent)
# chain: MSENCGPTDAHADHDDSHGGMGCAEVIAEVWTLLDGECTPETRERLRRHLEACPGCLRHYGLEERIKALIGTKCRGDRAPEGLRERLRLEIRRTTIIRGGP
# Variants of: B1
# Conditions: with pstp_myctu pstP
row,Variant,effect of a mutation on the interaction
1,T94A,disrupting interaction
